This is an account of results in the supplement of paper PMC12042874.

± gives the uncertainty stated by the source.

The nature of the series: amyloid nucleation score (Sup35N fusion, yeast selection) (log enrichment); library NNK1; higher = more nucleation; inactive = no reads after selection. A digest of the protocol: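 Random libraries were run with three technical output replicates. In each, psi-negative yeast expressing Sup35N fused to peptides of 20 random codons were induced 24 hours with 100 μM copper sulfate and grown 7 days at 30°C on medium lacking adenine and uracil, and input and output plasmid inserts were Illumina-sequenced. The nucleation score is the DiMSum log enrichment of output over input reads, centred on the mode score of non-aggregating sequences, and sequences under 100 input reads were excluded.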
DRYSNTTFNHIA: the amyloid nucleation score came to 0.779 ± 0.47. PLRDGA registered an amyloid nucleation score of -0.856 ± 2.4. Substance MWHERVGDVTVAHSNVGVMI returned an amyloid nucleation score of 3.85 ± 0.082. Under GVMYLKRKLRCYMGINYVFH stands 0.074 ± 0.31; under CLFDHKFMRIALHL, “inactive”. The result for NDDSDSVVFSTNGGIYFMHG reads -0.177 ± 0.53. As for VALWGQYGTSIGAIGAVFSH, the amyloid nucleation score was -0.03 ± 0.54. The result for CPRPYDRSALSRKLY reads 0.713 ± 0.32; that for WELARVDCNWFSHFWHAYMR, “inactive”; that for NSIDFVFDDGVLIRFVIKVS, “inactive”. Under DFVRRSNRYRYIVKIV stands 0.203 ± 0.39. The result for RRLTRIIKAKL reads 0.018 ± 0.78.

As for VSRVTASYRFIFNYYEMDTS, the amyloid nucleation score entry is “inactive”. Consider GIMTHVGRPKVTGCGRGKCT, for which the amyloid nucleation score is -0.165 ± 1.6.

DMHLMSGDLGMRVRPGGSAV came in with an amyloid nucleation score of 0.371 ± 0.7. Substance IGIGWATSLCLDRDLFVTSG came in with an amyloid nucleation score of 0.029 ± 1.2.

As to QKYPSWINFPYF, the amyloid nucleation score is -0.935 ± 0.97. Under RGGNIVKHRLFGPDGGAYWK stands -0.591 ± 0.79. Under SYFWYCGPSDDYNKPSCSMW stands -0.441 ± 0.8; under GAIDRGCVDLARTCSLGLTG, 0.508 ± 0.56. On to KGKAAT, for which the amyloid nucleation score is -0.534 ± 0.87. Under IMAGP stands -0.624 ± 0.58. The result for SLLTWFREYVDYTLYQWPGY reads -0.131 ± 0.76. The result for YAYFVSWGVFVIENVFPYKY reads -1.27 ± 0.66; that for RMFVGWHSLERIL, 1.21 ± 0.43; that for SGKVVNPCMNDSDLVLNRIW, -0.011 ± 0.23. Substance GLFNSDRVNQWPPGPCRDYV had an amyloid nucleation score of 0.5 ± 0.28. With CQQVLWS, the amyloid nucleation score was determined as 0.039 ± 0.79.

Substance AENITGWVVPIVVTLTASAR gave an amyloid nucleation score of -0.163 ± 0.29.

Turning to AFRSRFVIFHDGIRVLGYAD, the amyloid nucleation score was -1.13 ± 2.1. In turn, IGYLDYLCCGISLFFQETEA showed an amyloid nucleation score of 0.427 ± 0.48. Turning to CQFDVGAQLAYYGR, the amyloid nucleation score entry is “inactive”. With IIRLVQNRSIMSFAMGISWV, the amyloid nucleation score stood at 2.4 ± 0.33. Under RHSSYIGMCRT stands 1.66 ± 0.56; under GVACTARCMCKFNRHPGVCE, -0.274 ± 1.1. For the substance TAWSSHPEV, the amyloid nucleation score is -1.16 ± 2.4. The result for EWYLIYGGTRSGLIYRSYAR reads 0.109 ± 0.38. SLFQYWDVRDVESTFSVCNC returned an amyloid nucleation score of 6.339 ± 0.047. The result for FASASLLFSKPESG reads -1.41 ± 2.4; that for SFMQFDIRFT, 1.4 ± 0.27; that for LSTGWESNLEGCCENWGGLK, -0.499 ± 0.29. Under IVVNLGWFQIGIYLPARSDT stands -1.24 ± 1.9.

In the case of SEMPIFYLWDPQSGQRSWDG, the amyloid nucleation score came out at 0.036 ± 0.93.

On to LDVNLGYCHVVYWTIVKVRL, for which the amyloid nucleation score entry is “inactive”. Take TFVCIMFLDSSFSSENYGRL: the amyloid nucleation score was found to be 1.7 ± 0.16.

For the substance YVLLGFNYKTFYMSVGLDRE, the amyloid nucleation score was -0.005 ± 0.52.

Substance RKIVYVYEDVVRLNTCRISS returned an amyloid nucleation score of 0.034 ± 0.93.

NVMCAGYIIMGATMYKKWVM came in with an amyloid nucleation score of 0.902 ± 0.29. The result for HYSRDSLVVWYI reads -0.228 ± 0.56. As to FSDNRASPESKPQCVTGRRD, the amyloid nucleation score turned out to be 0.669 ± 0.31. WFTPNVWAGGVWHHVLGFGG: the amyloid nucleation score is -0.93 ± 0.65. Under ICACIMELCSLLHGIRGM stands -0.378 ± 1.4; under KRTLYSSIRF, 1.74 ± 0.15. The result for GLFYW reads 1.06 ± 0.72; that for RILKMYTYVLTMADHVLNKS, 0.21 ± 0.2. In turn, RCEGYFSVDVRGYSMLEIPG had an amyloid nucleation score of -0.365 ± 1.3. The result for AFNRSKQSIKAFSA reads -0.369 ± 1.2; that for CSCEVNMRLIGCKK, -0.253 ± 1.2; that for YFVGGF, -0.859 ± 0.91. YSNIRFSMNIYRTLRDRLGA: the amyloid nucleation score worked out at 5.12 ± 0.095.

In the case of KAPNRE, the amyloid nucleation score was -0.063 ± 0.66. The substance DDWAGLKFSYLWSVCCKWWD had an amyloid nucleation score of 2.52 ± 0.15. Under SRVNCYSSHSFSKYGRVGKS stands -0.004 ± 0.59; under LARDRFTYLAASYPFTPSRA, -0.761 ± 1.7.

In the case of FVLQKGYK, the amyloid nucleation score was 0.2 ± 0.59. Under SCGSVFF stands -0.758 ± 2.1; under KKRPPAPSMEVRLGARMVAG, 0.324 ± 1; under LRRLRTSYMLRAVLKLFLQP, 0.956 ± 0.58. Take CPSEYQIAGMIASSYMHLGE: the amyloid nucleation score was 0.872 ± 0.33. Under AIALQV stands -1.18 ± 0.94; under GAKYMNMRIRRTSFGSAYQS, 0.335 ± 0.48. Under YYRGCHLYSHHPLRGLLGGV stands “inactive”; under PNYIRGSIINYILEYSISIN, 0.02 ± 0.39; under DTAWNLVQSVS, 0.496 ± 0.7. For PSRDSV, the amyloid nucleation score was -1.06 ± 1.2. Consider WGYRHSYSVGPRW, for which the amyloid nucleation score result is “inactive”.

Substance KLSSKWTRACRHNSC gave an amyloid nucleation score of -0.134 ± 1.3.

In turn, TLFYFMACGQLLFGKRWNWF returned an amyloid nucleation score of 0.095 ± 0.58. LLRWLFCFEWHDSNMSTNII gave an amyloid nucleation score of -1.76 ± 2.4.

As to EYLAFDVPNWVGFLGSLWNM, the amyloid nucleation score was -0.064 ± 0.8.

In turn, IEDFEKGISVRVVTLWSWVV gave an amyloid nucleation score of -0.93 ± 0.39. The result for DSWLVAESSIHAF reads -0.049 ± 1.5; that for SSYDWCWSHVCFK, 0.8 ± 0.38. CLLTNTKFWYISMSHDLGCL came in with an amyloid nucleation score of 0.559 ± 0.34. Under MITARSLSPRIFRAESAYSE stands 0.117 ± 0.36.

On to IDVFLNALSVWNVIVDLIIV, for which the amyloid nucleation score is -0.225 ± 0.42. SNMTSRYYNCMVTWVRILVR: the amyloid nucleation score was 1.19 ± 0.41. Under RDSAL stands 0.274 ± 0.4; under NFLMSKTGLTPHR, 0.07 ± 0.51; under SWSLALL, -0.278 ± 0.85. LICAAAKLIHGWGNKWIYVT had an amyloid nucleation score of -0.368 ± 1.7. The result for WTAHSSL reads 1.09 ± 0.76. The substance TLFCYADMWYNLYHRIVKVR had an amyloid nucleation score of 1.52 ± 0.48. Under CTMSTSMPHRAVRRELSSIE stands 0.052 ± 0.3. In the case of TRAHGALYREEVKTWGSRLK, the amyloid nucleation score is -0.998 ± 0.8. For the substance MIQRGLVGKDSTHVI, the amyloid nucleation score is -0.175 ± 0.57.

The substance CHQAEPGIGMRSCTLVGEGV yielded an amyloid nucleation score of 1.36 ± 0.61.

TMDGHLGYRSRNILLLSVFV: the amyloid nucleation score was -0.41 ± 0.55. SNPSVNRHFVSSRGWLGKSN yielded an amyloid nucleation score of -0.422 ± 1.4. Under TANTLRYSFCAT stands -0.213 ± 0.32. GTHLYS: the amyloid nucleation score amounted to 0.78 ± 0.38. Under WVIVASP stands -1.42 ± 0.85; under SQFYVLVIWLSCALSMGSSI, -0.04 ± 0.45; under VSIIE, -0.127 ± 0.4. Under LCARFWDCRFKVQ stands 0.142 ± 1.4; under QRSCNAVTFVGCQYNFFPTE, 7.091 ± 0.05; under MRCSDFELMWFQIDDKYVDN, -0.201 ± 0.17. The substance DTGGLYLERARQFKASMFLR registered an amyloid nucleation score of 0.229 ± 0.42.

On to TSNYAGAISFANSNILLFFV, for which the amyloid nucleation score came to 3.64 ± 0.14. The result for FGLTCRLHKAVFRFYNKRTS reads “inactive”; that for NEEGVIQSFILVDALVVQGL, 0.391 ± 0.39; that for LVPRIRFWDYHNTELATHQK, 5.13 ± 0.07. The result for FATAGKFVY reads -1.23 ± 1.2; that for YGVNHRMYSKWHSVGAWMCR, 1.21 ± 0.66; that for ATYYFICMLIVQVHFCLFTM, -0.992 ± 0.5.

LLGNSLAVSFSFNSLVNHYS: the amyloid nucleation score was found to be 6.02 ± 0.063.

For the substance YLVITLFPEIIIDYLSYLCP, the amyloid nucleation score was 4.52 ± 0.079. ELTRGLWRFGAEWWATQQKT returned an amyloid nucleation score of 0.364 ± 0.31. The result for KPGFYT reads -0.705 ± 0.92.

As for HLRNLKDFNVQPF, the amyloid nucleation score is 0.635 ± 1.2. The result for QGGTVCLEF reads -0.578 ± 0.34; that for GPPSLYTWTAYCELSRRPEG, 0.515 ± 0.66; that for RHMRFPWLKAHVIFIMQWQR, 1.16 ± 0.54. As for LDLNRFDPWVVTSLLCFPVA, the amyloid nucleation score is -1.42 ± 1.5. The result for LPSNFCVKLSSTYYQVFG reads -2.37 ± 1.8; that for NPAGF, 0.558 ± 1.1.

Take CCRVISIWG: the amyloid nucleation score came out at 0.115 ± 0.54.

Take CVFYGFWYFGW: the amyloid nucleation score amounted to 0.145 ± 0.34.

RNWCIMFLTYVL returned an amyloid nucleation score of 3.74 ± 0.083. Under TSPEVLRAIVSTSLFCCILR stands -0.724 ± 2.4; under RITAVRGVCLFSADSV, -0.175 ± 0.26. Substance LLDMNANECYLPIWWQSEVT gave an amyloid nucleation score of 0.092 ± 0.96. In the case of SMFGFTYIVGRMDGSIGWSL, the amyloid nucleation score was 0.647 ± 0.22.

In turn, YIDIVGSSW had an amyloid nucleation score of 4.83 ± 0.07. Consider SNVAVRTSCYTGARMYTRWW, for which the amyloid nucleation score was found to be 1.94 ± 0.19.

As to KAFNVFER, the amyloid nucleation score amounted to 0.225 ± 0.53.

In turn, IYNIVGSLMSSAVFPGQSIS showed an amyloid nucleation score of -1.38 ± 1.2. LWVYSMWVQLTAGFNTVDVM yielded an amyloid nucleation score of -0.707 ± 0.95. The result for FKHDYKFEGVCRVNDFLMGF reads -0.115 ± 0.9; that for DSGVAVQMFEQTTGDPGIEG, -0.883 ± 0.76. The result for LNRGYAGFSLN reads -1.86 ± 1.1.
